Test in all cases: fluorescence anisotropy
(Polarisation of emitted light reports the rotation of a fluorescent probe.)

In assay [1] the target is T1, N-CoR RID2 peptide (Homo sapiens).
T1 chain: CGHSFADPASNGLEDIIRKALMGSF

The target in assay [2] is T2, N-CoR RID2 peptide (Homo sapiens, Rhodamine Red-labelled peptide).
T2 chain: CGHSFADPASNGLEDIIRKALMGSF

In assay [3] the target is T3, N-CoR RID2 peptide (Homo sapiens, 209 nM ATRA, Rhodamine Red-labelled peptide).
T3 chain: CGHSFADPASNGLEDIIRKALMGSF

In assay [4] the target is T4, ACTR NR box 3 peptide (Homo sapiens, 521 nM ATRA, Rhodamine Red-labelled peptide).
T4 chain: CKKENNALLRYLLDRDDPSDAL

The target of assay [5] is T5, ACTR NR box 3 peptide (Homo sapiens, Rhodamine Red-labelled peptide).
T5 chain: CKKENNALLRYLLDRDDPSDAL

Positions count from the first letter of the chain named.

B1: RARα LBD (protein)
chain: ESYTLTPEVGELIEKVRKAHQETFPALCQLGKYTTNNSSEQRVSLDIDLWDKFSELSTKCIIKTVEFAKQLPGFTTLTIADQITLLKAACLDILILRICTRYTPEQDTMTFSDGLTLNRTQMHNAGFGPLTDLVFAFANQLLPLEMDDAETGLLSAICLICGDRQDLEQPDRVDMLQEPLLEALKVYVRKRRPSRPHMFPKMLMKITDLRSISAKGAERVITPKMEIPGSMPPLIQEMLENSEGLD
Take B1: the Kd (in general, the equilibrium constant for the complex coming apart) in assay [1] amounted to 12.2 µM.

B2: RARα LBD (protein)
chain: B1 chain with M122L, P223L
The molecule B2 displayed a Kd in assay [1] of 18.6 µM.

B3: RARα LBD (protein)
chain: B1 chain with P223L
Turning to B3, the Kd amounted to 18.9 µM in assay [2], 74.2 µM in assay [3], 55 µM in assay [4] and 155 µM in assay [5].

B4: RARα LBD (protein)
chain: B1 chain with P223L, M238T
B4 registered a Kd in assay [1] of 10.9 µM.

Source of the values: publication PMC3294029 (2013).
